This note sets out measurements from the DeepSol protein solubility set.

The nature of this data set: soluble on expression in E. coli; label from the status in PepcDB or PDB records.
As to “MGFEDGFYTILHLAEGQHPNSKIPGGMYASSKDGKDVPVTAEPLGPQSKIRWWIARDPQAGDDMYTITEFRIDNSIPGQWSRSPVETEVPVYLYDRIKAEETGYTCAWRIQPADHGADGVYHIVGNVRIGSTDWADLREEYGEPQVYMKPVPVIPNVYIPRWFILGYEE”, the “soluble on expression in E. coli” value is listed as “soluble”.

Regarding “GGNANMFMNLSREAQSETRRHHYLSSSQKEAKDFAMFADTSNPTLVRTIGVRNNLSLITDPRTGGTALMTDQSIPRKFVLGSKSSAPGENAKVFRDEMRAAGHNVSTKQAGELLREVQSDSDDDNFPDPDDFIMSRFTG”, the “soluble on expression in E. coli” value was “not soluble”.

As to “MTGRESNRIKDAEKKRVLDSTARQRRARKALEALEQDNYHDDPHADLVMSKKLPKFQDSLKTGKEKKGKRKGAEYFLVKYRKNFQQLLEEDKDKQPNYESAAAPAPQKPLRHFCAVCGNFSLYSCTACGTRYCCVRCLQTHQDTRCLKWTALEHHHHHH”, the “soluble on expression in E. coli” value is reported as “not soluble”.

“MKHLNFILAGLFFLCGLCCRAQVLPLEENVVLNTKEGQIKGKLLLPGGVKTCPVVLIIAGSGPTDMDGNSAIGNLRNNSLKFLAEGLAANGIASLRFDKRGIGTSASAGKEEAKLRFEDYVNDVTGWIDYLAKEKRFTTITVAGHSEGALIGMLACQNRPKVKGYISVAGAGRPAYEIIEAQVAAQQNPEAVRKEVASINGSLKNGKEVSDVPAYLQSLYRASVQPYLISWFKYNPRTVIASVKVPVLIVQGKNDIQVSVEDAELLKKGCPAAELLLIDKMNHVLKDCESKAVQQQMLTYGNPSLPVNSTLIASVSTFVKKLK”: the “soluble on expression in E. coli” value is recorded as “not soluble”.

For the sequence “MVLVLDFGSQYTRLIARRLRELRAFSLILPGDAPLEEVLKHRPQALILSGGPRSVFDPDAPRPDPRLFSSGLPLLGICYGMQLLAQELGGRVERAGRAEYGKALLTRHEGPLFRGLEGEVQVWMSHQDAVTAPPPGWRVVAETEENPVAAIASPDGRAYGVQFHPEVAHTPKGMQILENFLELAGVKRDWTPEHVLEELLREVRERAGKDRVLLAVSGGVDSSTLALLLAKAGVDHLAVFVDHGLLRLGEREEVEGALRALGVNLLVVDAKERFLKALKGVEDPEEKRKIIGREFVAAFSQVARERGPFRFLAQGTLYPDVIESAGGHGAAKIKSHHNVGGLPEDLEFELLEPFRLLFKDEVRELALLLGLPDTLRLRHPFPGPGLAVRVLGEVTEERLEILRRADDIFTSLLRERGLYEKVAQALAVLTPVRSVGVAGDERKYGYVLALRAVTTEDFMTADWARLPLEFLDEAARRITRRVPEIGRVVYDLTSKPPATIEWE”, the “soluble on expression in E. coli” value was “soluble”.

Regarding “MFVPLAMLAGMFSYYETFHETEALQDDLLRQAALYVAPDSKPETLPEGDGDTRIFVQMPQQEDPVVSLPAHLADGLHTLQADGDDDYYRVYIRTTEQGRIAVMQENEYREDLAADAARQSVLPLLAALPLMILLTVWITHKAMRPVRKLSQSLEQRRINDLSALSVDNIPSEIRGFVTAINLLLKRADEDIRHRQRFVADAAHELRTPMTALSLQAERLNNMSLPPDAARQPAVLQQSIRRNKHLLEQLLALARSQSDETPLTKTTFGLQSRFRQVLQELMPLALEKRQDIGVAVGGDVEVSADETEIYTLIKTFADNAVRYTPPEGRIDLGFTDEGKYLAVWVEDNGNGIPESERARVLDPFYRILGTEQQGTGLGLSIADTLAKKYGGHLELTDSRRFGHGLLIRALLDKETLK”, the “soluble on expression in E. coli” value was “not soluble”.

As for “MGSDKIHHHHHHSLQAQSTVSHNLANVDTVGFKAALANTEAFQIRGKGYPSRIDALHVDQGFDRSQGHQKVTGNPLDVSLQQDRWLAVQSPDGSEAYTRNGELALTANGQLVTANGHAVLDEGGNPMTIPPHQAMEIGSDGSISIIPQGEGPQTMAIVGKMKVVDAPADRLMRRPDGLMRNTSTDPAQAFAVATGKTVNSGMLEGSNVDAAGALVEMIQLQRQFEMQVKIIKNGDDNAQSANSLLRVSG”, the “soluble on expression in E. coli” value is recorded as “not soluble”.

“MSLDEVIIGVCWPFSVNRDGMADGLHLALDEINTRRLAGPYTIRLVERDDEFDSKKHKNIAREFADRADMSAVLGYYDDGPSIRASSIYESSRLLHLMIGANNTDMTSHGFNYINRTILSSDRIALKLAKLTTDLGYRKIVVLWEEDAYGEDLAYQYQVGLDQLNAQVVYQWSYSRKNVDFRLLVNDLKIVDADMIFFSGLEPIAGDFLRMARKVGLKTPVIGAFSNTPEMRAHAGAVGFEGAIMFDFYNPCSQTPENRLFVNKFFSRYGRYPDAWAAQSYDALHILAKAIKFTGSRNPLDLSYAIRYADAFNGANGRYKFDRAGNLEDKPIYLYKIQNGVPVLLEEGHHHHHH”: the “soluble on expression in E. coli” value was “soluble”.

Consider “MANAFKLFPTRDTNYLEATYVHHDLNVVWLKLSFRVPLETLFLEYRQQGGHTLILSRQVYENILVRDTDFMSVFCNDLQAILEDSPAIERFFVELSPYYWGKEDFDKRMSAWSQSVQLYDWLVTFLDDRQEELKLKLVSLCEFTSLQILSIIRLISSNYLETIKLTFRKNDEQLESNFQEILKTKQWNNAKAAYVKGCCTPIASILHFQKATVQLDILSIDDLRVLKELATKGTLNIFKIRFHSIADSITDNSLIELFGESKHSFLWEWSINGIDNREIECIYSKTYKEFSIFYSEEYQKLGHGVPENNKSEETTLCTSEHSSKVLQNALLMKNILNHLERKDICRLQRTSRKIHESIANLKPDSKIVALEISLVKIECVTVNVFHKMGVKKLIYENVGLSNVDPTAKLITAMERHNQGVFGEEICFAHGRWQLGFSLSAFAVDLIRNLKDQKSEIQELWLDFSLTQARLRERPDKEHIKILVLATRQLLDVISSAGKTLDRQIPVKKLSIQALGHKPLLQILPLLNPVTLKTIEIQKSEVIMAKKPLNLNKVVQLDQWKNAEEVLIKSITAPGQIQHFLHFVVAEVNLESISMGDVLELKNVFQQNSNKLKKFKAFFENSDIDERIYDDQFLGFPYKRPENPSTNLPSVWFVRIPTSTVLHILYYKNRKMISFSRVSNSSVPSDALM”, for which the “soluble on expression in E. coli” value is recorded as “not soluble”.

In the case of “MASTAAETEKPEDHNDLVQLCNPHIAAMKEDILYHFSLSTSTHDFPAMFGDVKFVCVGGSPSRMKAFIKYVAMELGFAHPGADYPNICEGTDRYAMFKVGPVLSVSHGMGVPSIAIMLHELIKLLYHAHCSGVTLIRIGTSGGIGLEPGSVVITRQAVDPCFKPEFEQIVLGKREVRNTDLDEQLVQELARCSAELGEFPTVVGNTMCTLDFYEGQGRLDGALCSYTEKDKQDYLRAAYAAGIRNIEMEASVFAAMCNACGLRAAVVCVTLLNRLEGDQISSPHDVLAEYQQRPQRLVGQFIKKRLMQA”, the “soluble on expression in E. coli” value is listed as “soluble”.

On to “MGTYTVNVSSLNVRTGPSTSHTVLGSVNKGKTVQVVSEVQDWFKINFNGGTGYVSKDFVTKGGSAVLEHHHHHH”, for which the “soluble on expression in E. coli” value is recorded as “not soluble”.

Take “MAEQRFCVDYAKRGTAGCKKCKEKIVKGVCRIGKVVPNPFSESGGDMKEWYHIKCMFEKLERARATTKKIEDLTELEGWEELEDNEKEQITQHIADLSSKAAGTPKKKAVVQAKLTT”: the “soluble on expression in E. coli” value is recorded as “soluble”.

On to “MSKISSVLIDLSGTIHIEEFAIPGAQTALELLRQHAKVKFVTNTTKESKRLLHQRLINCGFKVEKEEIFTSLTAARDLIVKNQYRPFFIVDDRAMEDFEGISTDDPNAVVIGLAPEKFNDTTLTHAFRLIKEKKASLIAINKGRYHQTNAGLCLGPGTYVAGLEYSAGVEATIVGKPNKLFFESALQSLNENVDFSSAVMIGDDVNDDALGAIKIGMRAILVKTGKFRDGDELKVKNVANSFVDAVNMIIENKVENG”, for which the “soluble on expression in E. coli” value was “not soluble”.

Consider “MGSDKIHHHHHHMNQSLRPDKAALVELFRDFIEPQYVINDEETQKPFECDGLSVYCDMPLITVLPKTVEQVCEVMRICYRYQIPVVARGAGTGLCAGAMPNPDGVLLVLSRFKHILDIDPLARSARLQPGVRNLAISEAASPYGLYYGPDPSSQIACSIGGNVAENSGGVHCLKYGLTTHNLLKIEMVTVEGELITIGSEGLDSNGFDLMALITGSEGLLGVITEVTVKLLPSPEKAQVIMAGFDNVQTAGDAVGGVIAKGIIPAGLEMMDSPAIIAAEAFAHAGYPTDAQALLLCELDGSEAEVQEQIAEVEQLFIELGATTTRVSQSEAERALLWKGRKSAFPAVGRISPDYYCMDGTIPRSQLAHVLTEMQKLSEQYGLRVANVFHAGDGNLHPLILFDANVPGELERTEEFGSRILELCVKVGGCITGEHGVGVEKIRQMTIQFNDQELTQFHAIKHAFDPIGTLNPGKGIPVLKRCQEYRTLDRPQHKHDSQPQQGDLA”, for which the “soluble on expression in E. coli” value was “not soluble”.

Consider “MSLEEYPQMIVFEDVPYGFWAYDAIMDLAYHKIILGYGNGKYGVGDLTTREQVAGIIYRTLEMKEEGSVANPYKDISDSTTTFKKEILALTKRGVFTGDGQGNFRPKAPVSRAEMAVILKRAFTFETKQKHTFKDIPKGHWAEDAISALQSNNVVRGTGNGMYELNRPVPREQYAQFINNAIINYHLKEDWREGHHHHHH”, for which the “soluble on expression in E. coli” value was “not soluble”.

With “GPGSMVEACFLCLDSTEYMRNGDQYPTRMMAEQDAACLLANAKLQANAENTLGFLTTGGNACTVYETLTNNVDAIMTSIGSIPVNGKRCNFSSGLQIASLALSHRTNSRAEKRIVAFVGSPIGETAAELEALAKKLRKDDVAVDVVAFGVESNVELLQAFVKKVSKKENSRFLAVAARENLTDKLMSNAILLGEDLPEGAEGGGASMSGFGVDPNMDPELAMALRLSMEDEMQRQAAAAAAAASSAAPESAPASGSAATPAAPAAPAAAPVVDEDELSYENMSEEEMMRRAIALSLQDTAQGASDTASSPSVPQPATTSEACRNEEENEDDFAKGVEAALEEEEDEENRS”, the “soluble on expression in E. coli” value is “soluble”.

Consider “MASMTGGQQMGRGSDYFEPQQQQQQQQQQPQGASTPKVFVGYSIYKGKAALTVEPRSPEFSPLDSGAFKLSREGMVMLQFAPAAGVRQYDWSRKQVFSLSVTEIGSIISLGTKDSCEFFHDPNKGRSDEGRVRKVLKVEPLPDGSGHFFNLSVQNKLINLDENIYIPVTKAEFAVLVSAFNFVMPYLLGWHTAVNSFKPEDASRSNNANPRSGAELEWNLEHHHHHH”, for which the “soluble on expression in E. coli” value is reported as “soluble”.

In the case of “MTDNNTALKKAGLKVTLPRLKILEVLQEPDNHHVSAEDLYKRLIDMGEEIGLATVYRVLNQFDDAGIVTRHNFEGGKSVFELTQQHHHDHLICLDCGKVIEFSDDSIEARQREIAAKHGIRLTNHSLYLYGHCAEGDCREDEHAHEGK”, the “soluble on expression in E. coli” value is reported as “soluble”.

“MAHHHHHHMEEAKIEAALHICNLLPAHVFEETIKLLSKVDQNLTNNILINKEGPIKIKFDSQQNKHYLGNMFNKEKDSYRSPYSNRYYPEHYPNGYIPSESLRMLEMLYNEMYDRYRKAYYIGGLSSVYLWPNPIEEGFVACFLIKKKENYDPCTSLTWEGTHLIQVSITHARVYYQISTTVNFFIKKKNEMTLSASINKALETPKKVSNVNLVKDKYFHMHNMGKMIEGIENSLRKSIEYIYLPKMNDILNSIRMDDSFASAWHNADRKAAQNLRTISSNIALSRGSVQDELRLKLKGRSFDAGAEYSLRT”: the “soluble on expression in E. coli” value is “not soluble”.

On to “FGNFNFNTNFVFGYAKNRVDYKAEAQQKYEWLRETGRQIGQPFGYHWIGYYTPEDIEKINSGAADAPAKPDIAVQAGDLKYADLNGDGTINDFDKRAIGKPNLPTTTLGWTIGGSWKGFSISVLFQGSFDYSFAINGTGIESGKSQFQPLHQKRWTQERYENGESIEFPRLTMQDGTINSASAYNSDFWLINAWYIRLKTVDLGYQLPKTALPKFLDNVRFYVNAYNLLTFTGYDKYQQDPEIKTNTAGDAYMNQRVINFGVQLGF”, for which the “soluble on expression in E. coli” value is “not soluble”.

“GDTRPRFLQQDKYECHFFNGTERVRFLHRDIYNQEEDLRFDSDVGEYRAVTELGRPDAEYWNSQKDFLEDRRAAVDTYCRHNYGVGESFTVQRRVEPKVTVYPARTQTLQHHNLLVCSVNGFYPGSIEVRWFRNSQEEKAGVVSTGLIQNGDWTFQTLVMLETVPRSGEVYTCQVEHPSVTSPLTVEWRAQS”: the “soluble on expression in E. coli” value was “soluble”.
